Source: PMC5165034 (2016)
Positions count from the first letter of the chain named.

B1: 1G11 HCAb (antibody, V domains shown)
VH: EVQLVESGGGLVKPGGSLRLSCAASGFTFSDYYMSWIRQTPGKGLEWVSYISSSGSNIYYADSVKGRFTISRDNAKNSLYLQMNSLRAEDTAVYYCARGISMARDSWGQGTLVTVSS
B2: 7F2 HCAb (antibody, V domains shown)
VH: EVQLVESGGGLVKPGGSLRLSCAASGFTFSADYMSWIRQAPGKGLEWVSYISSSGSSIYYADSVKGRFTISRDNAKNSLYLQMNSLRAEDTAVYYCARGWFGESHSFDYWGQGTLVTVSS
B3: 2F4 HCAb (antibody, V domains shown)
VH: EVQLVESGGGLVKPGGSLRLSCAASGFAFSDYYMSWLRQAPGKGLEWVSYISSSGSNIYYADSVKGRFTISRDNAKNSLYLQMNSLRAEDTAVYYCARGAGVFDYLGQGGRGTLVTVSS
B4: 1F4 HCAb (antibody, V domains shown)
VH: B1 VH with T40A, N57T, I100V, S101K, M102L, A103T, R104E, S106D
B5: 1C12 HCAb (antibody, V domains shown)
VH: B1 VH with T40A, N57T, I100V, S101A, A103V, T114N
B6: 3A8 HCAb (antibody, V domains shown)
VH: B1 VH with T40A, S56D, N57I, Y80F, A97T, I100V, M102L, A103V, S106Y, L112Q

Target: bromelain-released HA (BHA) of influenza X-31 (influenza A strain X-31 (H3N2))
Assay: BLI

Binder	Kd [nM]
B1	2.9
B2	35
B3	5.6
B4	6.6
B5	1.8
B6	3.2
